The data set “AUC” deals with the molecule itself. As to the kind of experiment: AUC.
The data set “crystal structure” deals with the molecule itself. Kind of data set: crystal structure.

The record followed here is publication PMC9878632 (ACS Omega, 2023).

B1: PYCR1 T171M variant (human Δ1-pyrroline-5-carboxylate reductase 1, Thr171Met) (enzyme, UniProt P32322 1-300, looked up)
chain: MSVGFIGAGQLAFALAKGFTAAGVLAAHKIMASSPDMDLATVSALRKMGVKLTPHNKETVQHSDVLFLAVKPHIIPFILDEIGADIEDRHIVVSCAAGVTISSIEKKLSAFRPAPRVIRCMTNTPVVVREGATVYATGTHAQVEDGRLMEQLLSSVGFCTEVEEDLIDAVMGLSGSGPAYAFTALDALADGGVKMGLPRRLAVRLGAQALLGAAKMLLHSEQHPGQLKDNVSSPGGATIHALHVLESGGFRSLLINAVEASCIRTRELQSMADQEQVSPAAIKKTILDKVKLDSPAGTAL
Usually stoichiometry N stands for the number of molecules, sites or subunits per partner or assembly. In the case of B1, the “stoichiometry N” value in “AUC” worked out at 2; in the data set “crystal structure”, 10.
